Test results from patent US8097254.
Each block holds one molecule with its values, some of them ahead of it.

Experiments:
hen egg lysozyme (hen) = hen egg lysozyme (hen) (UniProt P00698); assay: 125I-labelled (Iodogen) scFv loaded on antigen column, counting of flow-through and eluate
[1] = biological target: T1, recombinant ED-B domain of fibronectin (UniProt P02751 1266-1356, biotinylated (biotin disulfide N-hydroxysuccinimide ester) in ELISA and ECL competition; Cy5 at the N-terminal extremity in the band-shift analysis); assay: competition of scFv-(ED-B-biotin) complex with excess unbiotinylated ED-B, electrochemiluminescent detection (Origen)
T1 construct: domain: ED-B; Recombinant fragment made as in Carnemolla et al. 1996; also called biotinylated ED-B; ED-B-biotin

[2] = biological target: T1, recombinant ED-B domain of fibronectin; assay: Kd = koff/kon, koff from ECL competition, kon from BIAcore
[3] = biological target: T1, recombinant ED-B domain of fibronectin; assay: SPR (BIAcore), purified scFv
[4] = biological target: T1, recombinant ED-B domain of fibronectin; assay: SPR (BIAcore)

T1 sequence (P02751 1266-1356 limits assumed): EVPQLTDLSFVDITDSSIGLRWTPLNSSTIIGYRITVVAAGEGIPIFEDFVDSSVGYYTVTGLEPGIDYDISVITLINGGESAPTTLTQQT
Sequence of hen egg lysozyme (hen) (P00698 19-147): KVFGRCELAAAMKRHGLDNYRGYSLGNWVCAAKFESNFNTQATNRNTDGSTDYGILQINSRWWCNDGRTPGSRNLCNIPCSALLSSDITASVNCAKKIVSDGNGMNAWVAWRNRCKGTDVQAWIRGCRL

immunoreactivity (hen egg lysozyme (hen)): > 80%
Molecule: scFv(D1.3)

koff [1]: 6e-06 s⁻¹ | Kd [2]: 54 pM | kon [3]: 110000 M⁻¹ s⁻¹ | koff [4]: 9.6e-05 s⁻¹
B1: scFv L19 (high-affinity anti-ED-B human scFv antibody fragment) (scFv)
chain: EVQLLESGGGLVQPGGSLRLSCAASGFTFSSFSMSWVRQAPGKGLEWVSSISGSSGTTYYADSVKGRFTISRDNSKNTLYLQMNSLRAEDTAVYYCAKPFPYFDYWGQGTLVTVSSGDGSSGGSGGASTGEIVLTQSPGTLSLSPGERATLSCRASQSVSSSYLAWYQQKPGQAPRLLIYYASSRATGIPDRFSGSGSGTDFTLTISRLEPEDFAVYYCQQTGRIPPTFGQGTKVEIKDDDSDDDYKDDDDKHHHHHH
modifications: in some assays labelled: iodine-125 (Iodogen, or via N-succinimidyl-3-(125I)-benzoate), astatine-211 via m-MeATE, Cy5-NHS, tin (IV) chlorin e6
